Test results from patent US11299526B2, “p53-BAD fusion proteins” (University of Utah Research Foundation, priority 2018, dated 2022).
“Also recorded” adds a separate entry of the source.

Legend:
OVCAR-3 cells [1] = settings: cited from earlier work
Kuramochi cells [2] = test: Paclitaxel cell viability assay; assay type: cell-based; settings: Homo sapiens, 48 hr
Method: Paclitaxel powder (LC Laboratories; Wobum, Mass.) was dissolved in DMSO to 10 mg/mL to make a stock solution. To determine the paclitaxel IC50 in Kuramochi cells, 8×10^3 Kuramochi cells were seeded in 96-well plates 24 hr prior to drug treatment. Paclitaxel in complete growth medium was added at increasing concentrations, and the cells were incubated for 48 hr. The Aqueous One Cell Proliferation Assay (Promega) was used to assess cell viability. For gene transfection and paclitaxel combination treatment, the cells were transfected first. 4 hr after transfection, paclitaxel was added at 100 nM or 200 nM, and the cells were incubated for 48 hr as previously optimized by our lab.
After confirming the high apoptotic potential of p53-Bad/112,136, we wanted to test the possibility of combining p53-Bad/112,136 gene therapy with paclitaxel, a standard-of-care for HGSC. Based on a genomic and gene expression profile study with 47 ovarian cancer cell lines, Kuramochi was identified to be the best model for high grade serous ovarian cancer, with the highest genetic similarity to ovarian tumors. The IC50 of paclitaxel was determined using a cell viability […] assay. Kuramochi cells were incubated with different paclitaxel concentrations ranging from 0 nM to 1000 nM for 48 hr. The IC50 value was determined to be approximately 100 nM. […]

[3] = Preliminary toxicity study, IP injected polymer and polymer-Ad; settings: mouse, in vivo
p53-Luc Cis-Reporter = test: Nuclear transcriptional activity p53 luciferase reporter gene assay; assay type: cell-based; settings: SKOV-3, OVCAR-3, ID8 and Kuramochi cells, 24 hr post-transfection
Method: All constructs (3.5 μg of DNA) were co-transfected with 3.5 μg of p53-Luc Cis-reporter plasmid encoding a firefly luciferase gene (Agilent Technologies; Santa Clara, Calif.) and 0.35 μg of pRL-SV40 plasmid encoding a Renilla luciferase gene (Promega; Madison, Wis.). Renilla luciferase was used to normalize for transfection efficiency in respective cell lines. The Dual-Glo Luciferase Assay System (Promega) was used to determine the firefly luciferase activity and Renilla luciferase activity per manufacturer's recommendation 24 hr post-transfection as before. The luminescence signal was detected using the Infinite M1000 microplate reader (Tecan; Männedorf, Switzerland). The Dual-Glo luciferase assay was performed in triplicate.

Kuramochi cells [4] = test: 7-AAD assay of constructs combined with paclitaxel; assay type: cell-based, human; settings: paclitaxel 100 nM or 200 nM added 4 hr after transfection, 48 hr
Method: The IC50 of paclitaxel was determined using a cell viability MTT assay. Kuramochi cells were incubated with different paclitaxel concentrations ranging from 0 nM to 1000 nM for 48 hr. […] A control group without paclitaxel (0 nM) was also included. The cells were incubated for 48 hr before the 7-AAD assay.

SKOV-3 cells [5] = test: 7-AAD late apoptosis/cell death assay; assay type: cell-based, human; settings: SKOV-3, 24 hr post-transfection
Method: (§1) Images of p53-BH3 (EGFP tagged on N-terminus) can be acquired 18 h post-transfection with an Olympus IX71F fluorescence microscope with a F-View Monochrome CCD camera and analyzed with ImageJ using Pearson's correlation coefficient (PCC) and post Costes' algorithm. PCC≥0.6 are considered to be colocalized. […] Apoptosis assay: 7-AAD assay (measuring late-stage apoptosis) can be performed as done before as an initial screen. As before, cells can be stained with […] working solution of 7-aminoactinomycin D (7-AAD) 24 hr post-transfection. Cells can be analyzed and gated for EGFP with the same fluorescence intensity to ensure equal detection of proteins
(§2) 7-AAD assay was performed as before (14, 15). Briefly, the cells were collected 24 hr post-transfection. The cell pellets were resuspended in 300 μL of 1.25 μg/mL 7-AAD in PBS. The cells were incubated on ice for 20 minutes, and analyzed using FACS-Canto-II similar to the TMRE assay. The cells were gated for EGFP positive (excitation at 480 nm and emission at 535 nm) and 7-AAD positive (excitation at 496 nm and emission at 785 nm). The constructs were assayed in triplicates. The lowest and highest values were set at 0% and 100%, respectively (relative 7-AAD) as before (14).

OVCAR-3 cells [6] = test: TMRE mitochondrial depolarization (MOMP) assay; assay type: cell-based, human; settings: OVCAR-3, 20 hr post-transfection
Description: […] Flow cytometry can be used to analyze […] cells using the PE-A channel (excitation at 561 nm with emission at 585/15). Loss in TMRE intensity represents mitochondrial depolarization, which correlates to mitochondrial outer membrane permeabilization (MOMP). […] Bad alone constructs may have some activity, but may be weaker or slower acting than p53-Bad constructs. This underscores the importance of using apoptotic, cell death, proliferation, and oncogenic assays to paint a complete picture of construct potency/efficacy.
(§3) […] Cells were incubated for 30 minutes at 37° C. then analyzed using flow cytometry (FACS-Canto-II with FACS Diva software, core facility, University of Utah) as described before. EGFP was excited at 488 nm with emission filter 530/35, and TMRE was excited at 561 nm with emission filter 585/15. The loss in TMRE intensity indicates mitochondrial depolarization, which correlates with an increase in the permeabilization of the mitochondrial outer membrane (MOMP). Each construct was transfected independently and tested in triplicates (n=3). The lowest MOMP value was set as 0%, and the highest MOMP value as 100% as before.

SKOV-3 cells [7] = test: Mitochondrial localization of EGFP-tagged constructs, fluorescence microscopy with PCC analysis; assay type: cell-based, human; settings: mitochondria stained with MitoTracker Red, CMV promoter
Method: as §1
24 hr post-transfection, cells were stained in PBS solution containing 200 nM MitoTracker Red CM-H2Xros (Thermo Scientific), 1:100 dilution of ProLong Live Antifade Reagent (Thermo Scientific), and 2 μM Hoechst stain. The cells were incubated for 20 minutes protected from light. Images were acquired using a Nikon AIR fluorescence confocal microscope with 60× Plan Apo Oil immersion objective (core facility, University of Utah). The images were visualized using NIS element software with built in EGFP, MitoTracker Red, and DAPI filters. Co-localization analyses were performed using the JACoP plugin for ImageJ software. […] The experiments were performed three times with 10 cells analyzed each experiment for a total of 30 cells per gene constructs.

[8] = test system: SKOV-3, OVCAR-3, ID8 and Kuramochi cells; test: TMRE mitochondrial depolarization (MOMP) assay, statements for the four ovarian cancer cell lines; assay type: cell-based, human, mouse; settings: four cell lines of FIG. 17, 20 hr post-transfection
Method: as §3

ID8 cells = test: 7-AAD late apoptosis/cell death assay; assay type: cell-based, mouse; settings: ID8, 24 hr post-transfection
Method: as §1, §2

[9] = test system: SKOV-3, OVCAR-3, ID8 and Kuramochi cells; test: 7-AAD late apoptosis/cell death assay, statements for all four ovarian cancer cell lines; assay type: cell-based, human, mouse; settings: 24 hr post-transfection
Method: as §2

Row | Molecule | nuclear transcriptional activity (firefly luciferase) (p53-Luc Cis-Reporter) | apoptosis / cell death (7-AAD) (SKOV-3 cells [5]) | mitochondrial depolarization / % MOMP induction (TMRE) (OVCAR-3 cells [6]) | subcellular localization of EGFP-tagged construct (SKOV-3 cells [7]) | mitochondrial depolarization / % MOMP induction (TMRE) [8] | apoptosis / cell death (7-AAD) (ID8 cells) | apoptosis / cell death (7-AAD) [9] | other results
1 | CN(C)CC[C@H](CSc1ccccc1)Nc1ccc(S(=O)(=O)NC(=O)c2ccc(N3CCN(Cc4ccccc4-c4ccc(Cl)cc4)CC3)cc2)cc1[N+](=O)[O-] [ABT-737] |  |  |  |  |  |  |  | IC50 (OVCAR-3 cells [1]): 10 ± 4 µM
2 | CC(=O)O[C@H]1C(=O)[C@@]2(C)[C@H]([C@H](OC(=O)c3ccccc3)[C@]3(O)C[C@H](OC(=O)[C@H](O)[C@@H](NC(=O)c4ccccc4)c4ccccc4)C(C)=C1C3(C)C)[C@]1(OC(C)=O)CO[C@@H]1C[C@@H]2O [paclitaxel] |  |  |  |  |  |  |  | IC50 (Kuramochi cells [2]): ~0.1 µM
3 | poly (cystaminebisacryl-amide-diaminohexane)-polyethylene glycol linked to RGD (Arg-Gly-Asp) [polymer alone] |  |  |  |  |  |  |  | immunogenicity at injection site [3]: no swelling, inflammation, or redness at injection site
4 | Bad/112,136: Bad with S112A and S136A mutations (SEQ ID NO:2), no p53, negative control (protein, mutated BAD peptide) MFQIPEFEPSEQEDSSSAERGLGPSPAGDGPSGSGKHHRQAPGLLWDASHQQEQPTSSSHHGGAGAVEIRSRHSAYPAGTEDDEGMGEEPSPFRGRSRAAPPNLWAAQRYGRELRRMSDEFVDSFKKGLPRPKSAGTATQMRQSSSWTRVFQSWWDRNLGRGSSAPSQ | do not activate firefly luciferase | inactive | some activity | mitochondrial localization; also recorded: effectively localize to the mitochondria | significant level of % MOMP | inactive | comparable to EGFP (negative control) except in OVCAR-3 cells; also recorded: apoptotic activity diminishes | effect of added paclitaxel on the activity of the construct (7-AAD) (Kuramochi cells [4]): does not seem to increase; effect of deleting the BH3 domain of Bad on activity (TMRE) (OVCAR-3 cells [6]; FIG. 20): significantly reduces the activity
5 | Bad: EGFP-tagged human Bad without p53 (SEQ ID NO:1), negative control (protein, UniProt Q92934 1-168, looked up, EGFP tag) Bcl2-associated agonist of …: MFQIPEFEPSEQEDSSSAERGLGPSPAGDGPSGSGKHHRQAPGLLWDASHQQEQPTSSSHHGGAGAVEIRSRHSSYPAGTEDDEGMGEEPSPFRGRSRSAPPNLWAAQRYGRELRRMSDEFVDSFKKGLPRPKSAGTATQMRQSSSWTRVFQSWWDRNLGRGSSAPSQ | do not activate firefly luciferase | inactive | some activity | found in the cytoplasm | significant level of % MOMP | inactive | comparable to EGFP (negative control) except in OVCAR-3 cells; also recorded: apoptotic activity diminishes | 
